{"source": "patent US20160166675A1", "molecular_target": "purified EV71 virus-like particles (purified antigen solution of Example 5) (EV71 (enterovirus 71), C4a subtype) (UniProt B9VUU3)", "assay": "indirect ELISA, VLP coated 1 ug/ml, control serum", "note": "Where “and” joins values, the source holds several entries; their conditions need not be identical. Equal values may be shown once.", "data": [{"substance": "Negative serum", "values": [{"measurement": "OD450nm", "result": "0.049 OD and 0.051 OD"}]}]}
